The supplement of paper PMC7877785
± gives the uncertainty stated by the source.

Experiment: self-splicing fitness, log relative to wild type (ln ratio); higher = more splicing; Tetrahymena group I intron in knt gene, E. coli kanamycin selection, DiMSum; sequences stand for … in CUCUCU…GGAGGGAAAAGUUAUCAGGCAUGCACCUGGUAGCUAGUCUUUAAACCAAUAGAUUGCAUCGGUUUAAAAGGCAAGACCGUCAAAUUGCGGGAAAGGGGUCAACAGCCGUUCAGUACCAAGUCUCAGGGGAAACUUUGAGAUGGCCUUGCAAAGGGUAUGGUAAUAAGCUGACGGACAUGGUCCUAACCACGCAGCCAAGUCCUAAGUCAACAGAUCUUCUGUUGAUAUGGAUGCAGUUCACAGACUAAAUGUCGGUCGGGGAAGAUGUAUUCUUCUCAUAAGAUAUAGUCGGACCUCUCCUUAAUGGGAGCUAGCGGAUGAAGUGAUGCAACACUGGAGCCGCUGGGAACUAAUUUGUAUGCGAAAGUAUAUUGAUUAGUUUUGGAGUACUCGUGGUCG
Procedure, shortened: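 A randomised library covering all eight P1ex-region intron nucleotides was built with the intron in the knt kanamycin-resistance gene on pET-22b(+) and held in E. coli BL21(DE3). Cells were grown overnight at 37°C or 30°C on LB agar, with or without 25 μg/mL kanamycin, plus 100 μg/mL carbenicillin, 50 μM IPTG and 0.2% rhamnose, and pooled colonies were amplicon-sequenced on an Illumina HiSeq 2500. DiMSum fitness is the error-weighted combination of wild-type-normalised replicate fold changes, kanamycin versus none.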

| Sequence | self-splicing fitness (ln) (30 °C) | self-splicing fitness (ln) (37 °C) |
| --- | --- | --- |
| UUUCAGCAAUAUUACGUAUU | -2.08 ± 0.13 | -1.39 ± 0.13 |
| GCAGAGCAAUAUUACGAUAC | -2.79 ± 0.28 | -0.699 ± 0.22 |
| UGCUAGCAAUAUUACGUACG | -0.494 ± 0.09 | 0.0248 ± 0.1 |
| GAUGAGCAAUAUUACGUUUC | -2.77 ± 0.31 | -2.57 ± 0.29 |
| CGGUAGCAAUAUUACGGGAU | -3.86 ± 0.47 | – |
| AGGCAGCAAUAUUACGCUCA | -0.172 ± 0.079 | 0.0289 ± 0.12 |
| UGUGAGCAAUAUUACGCGCU | -2.53 ± 0.27 | -3.1 ± 0.37 |
| GUGCAGCAAUAUUACGGUGC | -1.91 ± 0.19 | -2.31 ± 0.28 |
| GCGCAGCAAUAUUACGUCCU | -0.435 ± 0.12 | 0.126 ± 0.14 |
| CAUAAGCAAUAUUACGAAAU | -3.7 ± 0.2 | -2.68 ± 0.22 |
| CACGAGCAAUAUUACGAUAU | -2.64 ± 0.15 | -2.19 ± 0.28 |
| GUUCAGCAAUAUUACGCGCC | -1.96 ± 0.31 | -1.43 ± 0.34 |
| AUAAAGCAAUAUUACGGAGU | -0.717 ± 0.072 | -0.598 ± 0.088 |
| CGGAAGCAAUAUUACGUGUG | -1.38 ± 0.051 | -0.291 ± 0.067 |
| CCCUAGCAAUAUUACGCGGA | -1.29 ± 0.12 | -0.827 ± 0.1 |
| UUACAGCAAUAUUACGGUUA | -0.071 ± 0.058 | 0.344 ± 0.07 |
| UACGAGCAAUAUUACGCUAA | -2.89 ± 0.42 | -2.85 ± 0.35 |
| UACGAGCAAUAUUACGGCGG | -1.79 ± 0.13 | -1.08 ± 0.17 |
| AGUAAGCAAUAUUACGUAAA | -3.2 ± 0.34 | -1.75 ± 0.21 |
| CUGCAGCAAUAUUACGCCUA | – | -0.55 ± 0.23 |
| GAGCAGCAAUAUUACGCUAA | -1.3 ± 0.15 | -0.144 ± 0.18 |
| UGGAAGCAAUAUUACGCCAA | -1.12 ± 0.24 | -0.536 ± 0.26 |
| AGUCAGCAAUAUUACGCGGU | -2.25 ± 0.15 | -1.45 ± 0.11 |
| UGGUAGCAAUAUUACGGCAU | -1.5 ± 0.2 | -0.405 ± 0.21 |

| Sequence | self-splicing fitness (ln) (30 °C) | self-splicing fitness (ln) (37 °C) |
| --- | --- | --- |
| UUAUAGCAAUAUUACGCCGA | -0.888 ± 0.2 | 0.064 ± 0.25 |
| GAGUAGCAAUAUUACGCACC | -0.317 ± 0.25 | -1.31 ± 0.24 |
| CUCCAGCAAUAUUACGGUAC | -2.28 ± 0.12 | -1.86 ± 0.16 |
| CAAAAGCAAUAUUACGCAAA | -2.48 ± 0.14 | -1.76 ± 0.17 |
| UCUGAGCAAUAUUACGAGGC | -2.78 ± 0.35 | -2.39 ± 0.26 |
| CCCUAGCAAUAUUACGGGUU | -4.16 ± 0.17 | -2.39 ± 0.15 |
| GUCAAGCAAUAUUACGCUUA | -2.07 ± 0.14 | -0.67 ± 0.12 |
| AGAUAGCAAUAUUACGACAC | -1.11 ± 0.12 | -0.486 ± 0.15 |
| CUGGAGCAAUAUUACGUCUG | 0.206 ± 0.068 | 0.0818 ± 0.099 |
| GCUGAGCAAUAUUACGAACC | -1.08 ± 0.14 | -0.236 ± 0.18 |
| UCCUAGCAAUAUUACGUGCA | -2.86 ± 0.29 | -1.72 ± 0.2 |
| UUAAAGCAAUAUUACGACCU | -0.0595 ± 0.074 | 0.121 ± 0.1 |
| CUUAAGCAAUAUUACGCAUA | -3.2 ± 0.32 | – |
| UUACAGCAAUAUUACGGAAU | -3.68 ± 0.2 | -2.7 ± 0.17 |
| ACUGAGCAAUAUUACGACAC | -3.62 ± 0.2 | -2.07 ± 0.24 |
| CUAGAGCAAUAUUACGGACA | -2.86 ± 0.16 | -1.96 ± 0.29 |
| ACAAAGCAAUAUUACGGGCG | -0.625 ± 0.05 | 0.111 ± 0.067 |
| CAACAGCAAUAUUACGAUAU | -4 ± 0.15 | -2.2 ± 0.13 |
| CGAAAGCAAUAUUACGGGAU | -2.98 ± 0.21 | -2.87 ± 0.27 |
| CACCAGCAAUAUUACGUACA | -3.16 ± 0.17 | -1.59 ± 0.13 |
| UUGUAGCAAUAUUACGACAA | -0.0967 ± 0.15 | -0.283 ± 0.15 |
| GCAGAGCAAUAUUACGAGUC | -2.97 ± 0.25 | -2.39 ± 0.32 |
| CAUCAGCAAUAUUACGUGGA | -3.6 ± 0.19 | -2.05 ± 0.12 |
| UUAAAGCAAUAUUACGCACG | -0.443 ± 0.092 | 0.47 ± 0.14 |
